Measurements as given in patent publication US20170087188A1, “WNT INDUCED MOTILITY AND ENHANCED ENGRAFTMENT OF CELLS” (OTTAWA HOSPITAL RESEARCH INSTITUTE, priority 2014, published 2017).
“Also recorded” adds a separate entry of the source.

Legend:
[1] = test system: mouse primary myoblasts; test: Scratch migration assay, mouse primary myoblasts; format: cell-based
Description: Cellular polarization is indicative of increased motility (de Forges et al., 2012). Scratch assays were used to test whether Wnt7a and Fzd7 polarization affect cell motility. To exclude effects on the localization of cells arising from altered rates of proliferation, cells were treated with Mitomycin-C.
Fzd7 deficient cells migrated 59% less compared to heterozygous myoblasts and expression of Fzd7-Flag in Fzd7 knockout myoblasts restored migration to normal levels (FIG. 2D). […] To investigate whether the stimulation of myoblast migration is dose dependent, different concentrations of Wnt7a and Wnt3a were tested for their effect on migration.
Following plasmid transfection or application of Wnts (R&D Systems), the cells were treated with Mitomycin-C for 2 h (50 μg/mL). Subsequently, the monolayer of cells was scraped in a straight line. The plates were then extensively washed with culture medium and incubated for 24 h before analysis. Analysis was performed using DAPI staining after matching the reference points and enumeration of DAPI-stained nuclei in the scar was performed. Unless otherwise indicated, Wnt7a and Wnt3a were used at a concentration of 100 ng/mL in scratch assays. Monodansylcadaverine (MDC, 30432, Sigma) was used in scratch assays at a concentration of 50 μm.

[2] = test system: β-catenin signaling; test: TOP-flash luciferase reporter assay in C2C12 cells; format: cell-based; conditions: different concentrations
Description: Different concentrations of Wnt7a were tested to exclude a dose dependent effect on β-catenin signaling, as measured by induction of TOP-flash activity in C2C12 cells.
The UBC-Fzd7-Flag (Fzd7-Flag), CMV-Fzd7-EYFP (Fzd7-YFP), CMV-Fzd3-EYFP (Fzd3-YFP), CMV-EYFP (YFP), CMV-EGFP-Rac1-wt (GFP-Rac1, 12980, Addgene), CMV-EGFP-Rac1-T17N (Rac1-DN, 12982, Addgene), CMV-EGFP-RhoA-T19N (RhoA-DN, 12967, Addgene) and CMV-EGFP-Cdc42-T17N (Cdc42-DN, 12976, Addgene) constructs have been described previously (Bentzinger et al., 2013a; Subauste et al., 2000; von Maltzahn et al., 2011). The Fzd7-tdtomato plasmid was generated by replacing the C-terminal YFP in Fzd7-YFP with tdTomato. For TOP-flash and FOP-flash the TCF reporter plasmid kit (17-285, Millipore) was used with the dual-luciferase reporter assay system (E1960, Promega). For normalization pGL4.74[hRluc/TK] (E6921, Promega) was cotransfected. For TOP-flash and FOP-flash assays the cells were transfected with GenJet lipofection reagent (SL100499, SignaGen). Otherwise, Lipofectamine 2000 (11668019, Life Technologies) was used for transfections.

[3] = test system: primary myoblasts; test: Proliferation of primary myoblasts over five days; format: cell-based; conditions: 3 h exposure; various concentrations; over 5 days
Description: The proliferation of primary myoblasts following a 3 h exposure to various concentrations of Wnt7a was analyzed to control for the effect being due to changes in the cell cycle status of the transplanted cells.

[4] = test system: mdx mice; test: Transplantation of Wnt-treated mouse primary myoblasts into mdx mice; format: in vivo; conditions: treated zsGreen+ myoblasts; three weeks following transplantation; compared to Veh.
Description: In a clinical setting, freshly isolated satellite cells are often not readily available. Therefore, the effect of 3 h Wnt7a loading on cultured primary mouse myoblasts that were subsequently transplanted into injured muscles of immunosuppressed mdx mice (FIG. S5 A) was examined. After transplantation of 100,000 cells, the number of dystrophin-expressing myofibers was increased by 72% in muscles that were injected with Wnt7a treated myoblasts (FIG. 13B). […] In addition, the mean maximal cluster distance (dispersion) increased from 1.5 mm for Veh., to 2.0 mm for Wnt7a (FIG. 13D).
Transplantation of zsGreen-expressing satellite cells or myoblasts into mdx mice was performed as previously described (Bentzinger et al., 2013c). Before transplantation the cells were treated for 3 h with Wnt7a, Wnt5a, or Wnt3a (R&D Systems) at a concentration of 50 ng/mL for freshly isolated satellite cells or with 100 ng/mL for cultured cells. Myoblasts expressing tdTomato were transplanted into uninjured muscles of C57BL/6 mice that were implanted with an osmotic pump (Alzet) delivering FK506 (Sigma) at 2.5 mg/kg/day 3 days prior to the transplantations. In some experiments, the injection site was marked with blue fluorescent microspheres (2 μm, Life Technologies) that were added at a concentration of 1:100 (vol/vol) to the cell suspension. 10 μl of the cell-microsphere suspension was injected into the TA of each mouse using a Hamilton syringe.
Muscles frozen in liquid nitrogen were cut into 12 μm cross-sections. Cross-sections and cells were either fixed with ethanol (100%) or 2% PFA for 5 min, permeabilized with 0.1% Triton/0.1 M glycine/PBS for 10 min, blocked with 5% horse serum in PBS for several hours, and incubated with specific primary antibody in blocking buffer overnight at 4° C. Samples were subsequently washed with PBS and stained with appropriate fluorescently labeled secondary antibodies for 1 h at room temperature. After washing with PBS, samples were mounted with Permafluor (Fisher). Antibodies were as follows: chicken anti-GFP (Abcam, ab13970), mouse anti-Pax7 (DSHB), mouse anti-Dystrophin (7A10, DSHB), mouse anti-Rac1 (05-389, Millipore), mouse anti-Tubulin (Sigma, T9026), rabbit anti-Dvl2 (3224, Cell Signaling), rabbit anti-zsGreen (Clontech, 632474), rabbit anti-Laminin (Sigma, L9393), rabbit anti-HA (Millipore, 07-221).

Row | Molecule | dose dependency of myoblast migration ([1]; different concentrations tested, mouse primary myoblasts) | stimulation of cell migration ([1]; primary mouse myoblasts, 100 ng/mL) | TOP-flash reporter activity [2] | rate of proliferation of primary myoblasts [3] | mean maximal cluster distance [4] | number of dystrophin-expressing myofibers [4]
1 | Wnt3a: unrelated canonical Wnt protein (R&D Systems) used as comparison (protein, UniProt P56704 19-352, looked up) Protein Wnt-3a: SYPIWWSLAVGPQYSSLGSQPILCASIPGLVPKQLRFCRNYVEIMPSVAEGIKIGIQECQHQFRGRRWNCTTVHDSLAIFGPVLDKATRESAFVHAIASAGVAFAVTRSCAEGTAAICGCSSRHQGSPGKGWKWGGCSEDIEFGGMVSREFADARENRPDARSAMNRHNNEAGRQAIASHMHLKCKCHGLSGSCEVKTCWWSQPDFRAIGDFLKDKYDSASEMVVEKHRESRGWVETLRPRYTYFKVPTERDLVYYEASPNFCEPNPETGSFGTRDRTCNVSSHGIDGCDLLCCGRGHNARAERRREKCRCVFHWCCYVSCQECTRVYDVHTCK | no significant effect at any concentration tested | does not affect cell migration; also recorded: did not stimulate cell migration | dose dependent increase; also recorded: dose dependent response | reduced the proliferation of primary myoblasts | no difference; also recorded: Neither the number of dystrophin-expressing myofibers (FIG. 13E) nor the mean maximal cluster distance (FIG. 13F) was changed | no difference; also recorded: Neither the number of dystrophin-expressing myofibers (FIG. 13E) nor the mean maximal cluster distance (FIG. 13F) was changed
2 | Wnt5a: Wnt protein (R&D Systems) used as comparison in myoblast transplantation (protein, UniProt P41221 62-380, looked up) Protein Wnt-5a: IIGAQPLCSQLAGLSQGQKKLCHLYQDHMQYIGEGAKTGIKECQYQFRHRRWNCSTVDNTSVFGRVMQIGSRETAFTYAVSAAGVVNAMSRACREGELSTCGCSRAARPKDLPRDWLWGGCGDNIDYGYRFAKEFVDARERERIHAKGSYESARILMNLHNNEAGRRTVYNLADVACKCHGVSGSCSLKTCWLQLADFRKVGDALKEKYDSAAAMRLNSRGKLVQVNSRFNSPTTQDLVYIDPSPDYCVRNESTGSLGTQGRLCNKTSEGMDGCELMCCGRGYDQFKTVQTERCHCKFHWCCYVKCKKCTEIVDQFVCK | – | – | – | – | no difference; also recorded: Neither the number of dystrophin-expressing myofibers (FIG. 13E) nor the mean maximal cluster distance (FIG. 13F) was changed | no difference; also recorded: Neither the number of dystrophin-expressing myofibers (FIG. 13E) nor the mean maximal cluster distance (FIG. 13F) was changed
